Data published in a protein production outcome set (Wang et al. 2014).

Assay: label from the status in PepcDB records
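Also: failed if final PepcDB status was selected cloned or expressed and not failed if soluble or beyond.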

For “MVTIANDFLTVKISRHGAELTSIKDNLTGRERLWQADPAVWGRHAPVLFPIVGALADNQYHYAGKTYHMGQHGFARDRDFTVLSATPFKASFVLKDDDKTRAMYPFAFRLIITFALENNNLHVTYHVDNPDKSEPLFFSIGGHPGFKVPMTPDTQFSDYYLNFKPRKSLVQIPLVAGEGIDYTHRTLAATDANLALTHETFDHDALIFALLGKTTFNLVSDKTKHGVSVTMTDTPYLGVWSPYPTTGDFVCIEPWWGIADTIGSTGDLTRKLGINRLEPGTAFEKGYMISIFLEHHHHHH”, the protein production was “failed”.

In the case of “MKNLKKKLLKLVKIFVIIFVCLAAFFVYIFIEPYWINEKTTTISDSDVPQNFEGKKIVFISDIHHGPYFERERVADLVRKVNELEPDIIILGGDYVSGDVGYIGACFEELSRLKADMGIFGVTGNHDEWTDYNLTVKCMENAGITVLSNRAEWLEIGDDKIKIAGVDWSTDWYFNSEPYVDPLIKDAEENDFVILVSHTPDLAEELTTDKVDLVLSGHTHGGQITFFGLWAPYVPSFYGQKYRTGIVKTDKTMALVSNGVGNTFLPIRFFARPQINIIILDHP”, the protein production is reported as “failed”.

With “MMNSRQRYKAFISYSHHDRKAAEWLHRSLESYRPPAGLRAGLGEASGNALKPIFRDRDELSAAADLSEAIRDALDRSDTLIILCSSHAATSRWVDKEVAHFLTLRGADHMISVIAPGAPEGLPLMELLPPALRAALPEGVEPLAVDLRQDADGRRLAKLKIAARLLGVSLDRLVQRDARRRLRLMTAVSGVALAITVGMGAMTVVTLKSRQIAREQRDETEALVAYMLGDLREQLEPVGRLDLLDGVSAKVLAYYAKAQSDQLDDKALAQRAKAQTLLGTIREQRGDLEGAQDAFAQAAATTHALVERSPNDGDRVFDEAQNVFWLAYMGWRRGEIAQAERGFKRYAELAQRLVVIDPNRADWRIEVAYAKNNLGTLLFEEGRAGEALASFRAAFSIFEAERLRAPTDKQRLMDSANARAWVADCLLLMAKPREAFTERKAAAELLAKGEAAFPADQRLAAKSVATQLALARLELDLGRVAEARSRSKAAMNRLRELAALDPTNTRWREYVLIGELDFIDFAIWSGQPVQARSLHAAALANLARTRKGQEGGSWRPDLDGRLARQAVVLALSVGDVATAKRAAKSLVEALETSKVDRETAFGRTDLLGLAQLVDGKPSAAIKALSPRRNALPPASLDVLARAYAAVGERETAARIVRDLKQEGYAHPGFVAFWRESPAGGPPQSGVLK” the protein production was “failed”.

For “SLYGNSSGGTLLTTTKEGQGKDSVELNYSGGSHDKNRTGLILQGGAKQSNQPSYVISSSYFDTDGYREHSAAHKILNNAKLTWNLDDGSKINWITNYVKINADDPQGLTRDQWKANPKQQVPFLQQFDVRKDIEQTQTGVTWSKPINDQNELYMMGYLGNRKVTQYQSIPKSTQDASKNQAGGVIDFERNYYGADLRWTGKELLPNTTFSVGVALDAMDEDRKGYENYVTVNNQPSYGVKGNLRRDEDNTLWNIDPYLQASWQFLPTWRLDTGVRYSNVHYKSDDHFIVIGNTAKDSNPDDSGKTDYSKVLPSAALSWQIVPELLAYVSYAKGFETPTFTEMAYNPDPDLSGFNFGLKASTSDTYEAGLKSQNRLGDFTLAAFQTKTKDDIVSAGSINGRATFRNADRTLREGIEFTWNKQLWRDLVLNTSYAYLNATFDADVPATASVAAITSGNQIPGVAKNQAYASLAWKPQTGFHGGIDAQYNDKIYVDDKNSDAAPSYTVVAAYAGYTWQMQDWKLNVYSRVDNMFDKSYVGSVIVNDGNSRFFEPADGRNWSAGLRVSKQF”, the protein production was “failed”.

In the case of “MSATLQDHTVAFRDPALTDIARAIAHGDVARIKALAPTVDLAAHGDQNVTLLEWAIWNEQPRALAALLDAGADPSLPGMDQETVVHMAAMAQDPEYLQILLQHKAPIDVVSARAGWTPLFRAMQSKRDAQIDLLIKAGADVQRVDHTGNSLLHLAAQSGAASPAVLTLLNAGVDPAVRNAQQKTFQAYFFTTPDRLLNASGQQVRSEVRAWLNAHNIPVESSR”, the protein production is reported as “failed”.

For “MTILSAALLLFLILDPLGNIPVFLSVLKPLPPKRQRFVLARELLIALCVLMAFLWGGKYALELMHLRQESVAIAGGIVLFVIGIRMIFPRPEGLMGEIPDGEPFIVPLAIPLVAGPSGMAAVMLMGSNEPTRLWDWSLALMIAWIGASSILAAAPLLYKLLGHRALTAIERLMGMLLVAISVQMFLDGLGTYFKLPVSI”, the protein production was “failed”.

In the case of “MPSSTTVPTRRGLVSGPSSSDAHGDMPAVSVIMNCLNCERDLAEAIGSVFAQTFDDWEIVFWDNGSTDRSAEIAQGFGERVRYFRATETVPLGAARNLAIAKARGEFIAFLDCDDVWLPEKLERQVALFRANPRVGLVCTDTVMFTGAKDLNRLFEHAHPARGHVFRELMTTQWISMSSAVIRRNALDGMDHWFDESLNVCEEADVFYRIAWDWELDHVDAPLTRWRVHGANTTFRKFGQFAEETLRILDKHRAMYPGYDERYADLVALLRRRAAFQRAVALWREGRGAEARATIAPFDASPKFRLFRLATYLPGALFDPLARLYFALPAFLRRLEHHHHHH”, the protein production is reported as “failed”.

For “MEKTIIAALLMLISLISYAQGLMWTAKAELNMSSMSNVEESKMHPGFYAGIGAGYVIDETRSVRPSLLFTMKGVKQDYKF”, the protein production was “failed”.

With “MYVTTGTNDILLTINDYVNKETASYQLTDISNNTLISEIIEKIKVLKNYTYSSTDLVLYFARVECKLSEKLSTYNKSNRKTIKLELYLSKLITINVRTLQSCGTGTSRCIPFWSFCFRQNIKIKIIDTCEVRVLKQKIYNLTDESTSIPVENIVLLYKGAPLNNFLTLKESELIDNCRIDYFVPLCYIYKKKKEESDEDEDENEEKLKEHTKSEDKKVDTQQNENVKSENVNNENVKNENVNNENVKNENVNNENVNNENVNIENVKNDNNDNAKKC” the protein production was “failed”.

With “MRPKVSVALATYNGEKYIEEQLESIIKQTRAPDELVICDDCSNDETINIITKKIKNAHFDVKLVSNDKNIGYVQNFSKALEMSSGDIVFLCDQDDVWLSDKIEFIINKFNTRPDIQLLIHDVDYCKEDLTPIGQTKLQRMESNFDIESDYVVGMATAVRRSFLVHCLPVPSAPEVTHDEWLHDCARVLGCKGIVREVLALYRRHSLNVTAPSRLNVDFVTTRHYFGNESLAFLKLFRMETDLGSPDISPLVQWLDSRKMVLLDNGFSSEDRINTFIQYEEKRLRARNSRQSILRLDRWKRLFPIYDLYRSGGYHYYCGWKSALKDLLRTYALEHHHHHH” the protein production was “not failed”.

For “MNIGSMDIQKIGMITSYRNLAKRADWLWQQTPQQFGIWQNIQIQALSGKPDFLLMYQFDFPKDNQQTSLIDKLRQKLQNPQVNVESLLRDVPKEKIIYLLREPPLDEIVEKNKRYYQEAKKYCGYISGPDDFAPKPDYMPAIWYHNNSFRELNEMPVPEKVFPCSWITSGISRTVNHRRRLKFVELIQASEVKCDVYGRDLPIWAKSLGELGNKWYGMAPYYYNLSIENYADNDWYVSEKLWDALLAWCLPIYYGGPAADKLLPPGSFLRLPSLDEKGIAYIQEVTATPDAWYAAKDAIAEARQLILHKLNLLNWLSEFVTQFS”, the protein production was “failed”.

In the case of “MSLSKILIAGCGDLGLELARRLTAQGHEVTGLRRSAQPMPAGVQTLIADVTRPDTLASIVHLRPEILVYCVAASEYSDEHYRLSYVEGLRNTLSALEGAPLQHVFFVSSTGVYGQEVEEWLDEDTPPIAKDFSGKRMLEAEALLAAYSSTILRFSGIYGPGRLRMIRQAQTPEQWPARNAWTNRIHRDDGAAFIAYLIQQRSHAVPERLYIVTDNQPLPVHDLLRWLADRQGIAYPAGATPPVQGNKKLSNARLLASGYQLIYPDYVSGYGALLAAMREGHHHHHH”, the protein production is reported as “not failed”.

With “DNKELQKLTEDISETYFKKPFRHQALFNDRLKTTGGRYLLTSHNIELNRKYLIEHGREELIGIIKHELCHYHLHLEGKGYKHRDRDFRMLLQQVNAPRFCTPLKKKAENKKTYMYICTTCGQQYIKKRAMNPDRYRCGKCRGKIKRI” the protein production was “not failed”.

In the case of “MKPIHVGLLGLGTVGGGTLTVLRRNAEEITRRAGREIRVVRAAVRNLDKAEALAGGLPLTTNPFDVVDDPEIDIVVELIGGLEPARELVMQAIANGKHVVTANKHLVAKYGNEIFAAAQAKGVMVTFEAAVAGGIPIIKALREGLTANRIEWLAGIINGTSNFILSEMRDKGAAFDDVLKEAQRLGYAEADPTFDIEGIDAAHKLTILSAIAFGIPMQFERAYTEGISQLTREDVRYAEELGYRIKLLGIARRAENGIELRVHPTLIPERRLIANVDGAMNAVLVKGDAVGPTLYYGAGAGSEPTASAVVADLVDVTRLHTADPHHRVPHLAFQPDQLADTPILPMEAVRTAYYLRLRAFDRPGVLADITRILADSSISIDAMVQKEPAEGEEQVDIILLTHVTLEKNVNAAIAKIEALDAVAGKVMRIRLEDLGAK”, the protein production is reported as “not failed”.

For “MDISLLKQVVQSTNKIALSTAVNNEADVKIVNFVWYEAQPDTLYFSSVKTSPALKVYDQNPDIAFITIPNDGTAGNPYLRAQHVKLQRSTKTMTDLLPQYLETVPNYQQVWDAIGSTLVVFELKLTDLFVDAGVGGEKQTLTFN”, the protein production was “not failed”.

For “MPGIKVHPNESFDEAYRKFKKQVDRNLVVTEVRARRFFEPMTEIRKKQKISARKKMLKRLYMLRRYESRLLEHHHHHH”, the protein production was “failed”.

With “MKHIQINPSILSADLARLGDDVKAVLAAGADNIHFDVMDNHYVPNLTFGPMVLKALRDYGITAGMDVHLMVKPVDALIESFAKAGATSIVFHPEASEHIDRSLQLIKSFGIQAGLALNPATGIDCLKYVESNIDRVLIMSVNPGFGGQKFIPAMLDKAKEISKWISSTDRDILLEIDGGVNPYNIAEIAVCGVNAFVAGSAIFNSDSYKQTIDKMRDELNKV” the protein production was “not failed”.

With “PTSSTTAALVMGDALAVALLEARGFTAEDFALSHPGGALGRKLLLRVNDIMHTGDEIPHVGLQATLRDALLEITRKNLGMTAICDDDMNIIGIFTDGDLRRVFDTGVDMRDASIADVMTRGGIRIRPGTLAVDALNLMQSRHITCVLVADGDHLLGVVHMHDLLRA” the protein production was “not failed”.

With “MSRSDNGGEDKGLRITRREFLAAAGAGAAAFIVGAVVGSTAFPREKEVVKPGPTQTVTATATETATVTETQTQVQLVEKKYPKVKIANVSELREGQPVFKEYIGHRIVVIKLGEEAVNGVGPDKDIVAFSMLCTHMGGFLIFDGNTKTLICPLHFSQFDPSRGGQPVVGHATEYLPQVILEYDEASGDIFAVGFTALVYGRYDNLQGVKA” the protein production was “failed”.

In the case of “MSLSNRAGEILIVEDSPTQAEHLKHILEETGYQTEHVRNGREAVRFLSLTRPDLIISDVLMPEMDGYALCRWLKGQPDLRTIPVILLTILSDPRDVVRSLECGADDFITKPCKDVVLASHVKRLLSGVKRTEERYSRESITLAFGNEGHHHHHH”, the protein production is reported as “not failed”.

In the case of “MVGEEDSERAQSSKMEIERESNLGSASVLMQSKVISVSNFFSIHRFHYPREKIVSFLFPSVFSRIMASYGEEREIQKNYWKEHSVGLSVEAMMLDSKASDLDKEERPEILAFLPPIEGTTVLEFGAGIGRFTTELAQKAGQVIAVDFIESVIKKNENINGHYKNVKFLCADVTSPNMNFPNESMDLIFSNWLLMYLSDQEVEDLAKKMLQWTKVGGYIFFRESCFHQSGDNKRKYNPTHYREPKFYTKLFKECHMNDEDGNSYELSLVSCKCIGAYVRNKKNQNQICWLWQKVSSDNDRGFQRFLDNVQYKSSGILRYERVFGEGFVSTGGLETTKEFVDMLDLKPGQKVLDVGCGIGGGDFYMAENFDVDVVGIDLSVNMISFALEHAIGLKCSVEFEVADCTKKEYPDNTFDVIYSRDTILHIQDKPALFRRFYKWLKPGGKVLITDYCRSPKTPSPDFAIYIKKRGYDLHDVQAYGQMLRDAGFEEVIAEDRTDQFMKVLKRELDAVEKEKEEFISDFSKEDYEDIIGGWKSKLLRSSSGEQKWGLFIAKRN”, the protein production is reported as “failed”.

In the case of “MVHAFLIHTLRAPNTEDTGLCRVLYSCVFGAEKSPDDPRPHGAERDRLLRKEQILAVARQVESMCRLQQQASGRPPMDLQPQSSDEQVPLHEAPRGAFRLAAENPFQEPRTVVWLGVLSLGFALVLDAHENLLLAEGTLRLLTRLLLDHLRLLAPSTSLLLRADRIEGILTRFLPHGQLLFLNDQFVQGLEKEFSAAWPR”, the protein production is reported as “failed”.

For “HLHLRVKLLDNTMEIFDIEPKCDGQVLLTQVWKRLNLVECDYFGMEFQNTQSYWIWLEPMKPIIRQIRRPKNVVLRLAVK”, the protein production was “failed”.
